From US20040259798A1 (KARYON CTT, published 2004)
Bridge positions count the residues as written; N and C are the ends. Ends that are not written are not given here.

Tests used:
αMβ2 integrin (Mac-1) = αMβ2 integrin (Mac-1) (UniProt P11215 17-1152; P05107 23-769); experiment: phage display biopanning on coated αMβ2 integrin
Description: The αMβ₂ integrin was purified by antibody affinity chromatography from buffy coats obtained from Finnish Red Cross Blood Transfusion Service as described previously (Li et al., 1995). Integrin diluted in Tris-buffered saline (TBS)/1 mM MnCl₂ was coated onto microtiter wells overnight at 4° C. using […] per well in the first biopanning and 100, 10 and 1 ng in subsequent pannings. The wells were blocked with 5% BSA in TBS for 1 h at 22° C. and then washed five times with TBS. Biopanning was performed using CX₇C and CX₉GC phage peptide libraries essentially as described (Koivunen et al., 1994). The construction of libraries was modified so that the single-stranded DNA encoding degenerate sequences was converted into a double-stranded form using 5 cycles of PCR with only the reverse primer and then 11 cycles with both the reverse and forward primer. A total of 6 μg of the double-stranded oligonucleotide was purified using QIAGEN PCR purification kit and ligated with 42 μg of the Fuse5 phage vector. The number of recombinants in the libraries was more than 10⁹. Phage binding, elution and subsequent amplification in E. coli were repeated five times, and after each panning bacterial colonies were picked up and stored in a 10 μl volume of TBS in microtiter wells at −20° C. For direct colony sequencing, […] aliquots of the thawed samples were subjected to PCR with 10 pmol each of the forward primer 5′ […] 3′ and the reverse primer 5′[…] 3′. The PCR conditions were 92° C. for 30 s, 60° C. for 30 s, and 72° C. for 60 s, and the cycle number was 35. One μl aliquot of the PCR reaction was taken for sequencing using 15 pmol of either one of the primers and analyzed on an ABI 310 apparatus (PE Applied Biosystems, Foster City, Calif.).
After the fifh round of selection, the CX₇C library gave a 600-fold enrichment and CX₉GC a 1000-fold enrichment of phage bound to the integrin in comparison to background. […] Four of them contained the LLG tripeptide motif.

[1] = target: T1, αLβ2 integrin on Jurkat cells (UniProt P20701 26-1170; P05107 23-769, limits assumed); experiment: inhibition of αLβ2-mediated Jurkat cell adhesion to ICAM-1-Fc (coated directly or captured via protein A), Crystal Violet staining
T1 construct: whole, on cells

B1: phage displaying CWHKDLLGC (peptide)
peptide: CWHKDLLGC
B1: binds (αMβ2 integrin (Mac-1)).

B2: phage displaying CPCFLLGCC (LLG-C4) (peptide)
peptide: CPCFLLGCC
B2: binds (αMβ2 integrin (Mac-1)).

B3: C(1-8;3-9) peptide (peptide)
peptide: CPCFLLGCC
modifications: disulfide 1-8, 3-9
notes: also called LLG-C4 peptide; LLG-C4 nonapeptide
Binder B3 has an IC50 [1] of ~80 µM.

B4: phage displaying CWKLLGSEEEC (peptide)
peptide: CWKLLGSEEEC
B4: binds (αMβ2 integrin (Mac-1)).

B5: phage displaying CWSMELLGC (peptide)
peptide: CWSMELLGC
B5: binds (αMβ2 integrin (Mac-1)).

B6: phage displaying CPPDLFWYC (peptide)
peptide: CPPDLFWYC
B6: binds (αMβ2 integrin (Mac-1)).
